In the experiment the target is CD66c receptor (human (patients' ileal enterocytes)) (UniProt P40199). Put plainly: cell-based or functional assay.
UniProt P40199, sequence (P40199 35-320): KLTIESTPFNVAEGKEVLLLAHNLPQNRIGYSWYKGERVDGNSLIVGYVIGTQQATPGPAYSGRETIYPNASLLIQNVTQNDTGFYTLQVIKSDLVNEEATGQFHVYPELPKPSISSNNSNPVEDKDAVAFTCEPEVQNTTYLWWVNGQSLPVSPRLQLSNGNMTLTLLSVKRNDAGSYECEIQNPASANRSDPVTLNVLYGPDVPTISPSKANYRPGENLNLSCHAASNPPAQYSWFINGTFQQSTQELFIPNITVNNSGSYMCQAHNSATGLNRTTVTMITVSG

In the case of “type 1 pili (adhesin FimH) of the E. coli AIEC strain LF82”, the Adhesion to the enterocytes, no antibody (adhesion index), patient F (bacteria adhering per enterocyte) stood at 1.45; the Adhesion to the enterocytes, no antibody (adhesion index), patient G (bacteria adhering per enterocyte) was found to be 1.15; the Adhesion to the enterocytes, no antibody (adhesion index), patient H (bacteria adhering per enterocyte) was 1.02; the Adhesion to the enterocytes, no antibody (adhesion index), patient I (bacteria adhering per enterocyte) amounted to 1.28.

Source of the values: US20100015600A1.
